Results on 1 substance are retold here after patent publication US20210338733A1.

In the experiment the target is CD19 on CD19 positive target cell lines (UniProt P15391). As to the kind of experiment: cell-based or functional assay.
Sequence of CD19 on CD19 positive target cell lines (P15391 20-556 limits assumed): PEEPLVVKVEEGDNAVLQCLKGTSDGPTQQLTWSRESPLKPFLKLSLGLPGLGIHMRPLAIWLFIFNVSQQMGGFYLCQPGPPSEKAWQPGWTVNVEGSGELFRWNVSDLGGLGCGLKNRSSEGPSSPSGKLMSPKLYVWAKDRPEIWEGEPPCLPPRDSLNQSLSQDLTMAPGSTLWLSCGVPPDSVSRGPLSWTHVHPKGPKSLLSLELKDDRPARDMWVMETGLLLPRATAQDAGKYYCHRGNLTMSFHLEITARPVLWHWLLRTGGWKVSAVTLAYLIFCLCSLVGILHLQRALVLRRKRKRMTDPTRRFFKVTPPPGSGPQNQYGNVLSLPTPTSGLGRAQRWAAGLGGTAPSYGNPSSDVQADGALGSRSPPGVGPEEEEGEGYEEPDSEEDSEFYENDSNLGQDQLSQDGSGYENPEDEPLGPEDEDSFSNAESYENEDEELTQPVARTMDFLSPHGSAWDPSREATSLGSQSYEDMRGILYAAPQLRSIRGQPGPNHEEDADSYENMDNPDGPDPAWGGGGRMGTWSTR

Turning to “CD19 CAR as expressed on CART-19 cells (anti-CD19 FMC63 scFv, human CD8α hinge and transmembrane, human 4-1BB and CD3ζ) (receptor)”, the CD40L expression by CD4+ CAR T cells (flow cytometry, 24 hours of coincubation) (fold of the upregulation by CART-TnMUC1) is 2.
